{"source": "paper PMC5114699", "origin": "cited, not measured here", "target": "Glu148 (UniProt position 148, MVLGREGPTVQ)", "data": [{"substance": "ClC-ec1 Cl-/H+ antiporter (H(+)/Cl(-) exchange transporter ClcA) (Escherichia coli)", "values": [{"measurement": "pKa", "result": 6.2}]}]}
